Molecular target: Stx2k B-subunit (of the Stx2kE167Q toxoid) (Escherichia coli)
Assay: crystal structure

Substance: Stx2k B-subunit (of the Stx2kE167Q toxoid) (natural protein)
- stoichiometry N: 5
